Laboratory results taken from patent publication US12269880B2, “LAG3 binding peptides” (Leidos, Inc., priority 2019, dated 2025).
Several values for one entry are separate records, joined by “and”; a condition that tells them apart may be missing. Equal values may be shown once.

Tests used:
[1] = molecular target: T1, soluble recombinant human LAG3 (Homo sapiens, UniProt P18627); test: Clonal phage ELISA after phage display bio-panning; assay type: binding
T1 construct: soluble recombinant human LAG3
T1 sequence (P18627 23-450 limits assumed): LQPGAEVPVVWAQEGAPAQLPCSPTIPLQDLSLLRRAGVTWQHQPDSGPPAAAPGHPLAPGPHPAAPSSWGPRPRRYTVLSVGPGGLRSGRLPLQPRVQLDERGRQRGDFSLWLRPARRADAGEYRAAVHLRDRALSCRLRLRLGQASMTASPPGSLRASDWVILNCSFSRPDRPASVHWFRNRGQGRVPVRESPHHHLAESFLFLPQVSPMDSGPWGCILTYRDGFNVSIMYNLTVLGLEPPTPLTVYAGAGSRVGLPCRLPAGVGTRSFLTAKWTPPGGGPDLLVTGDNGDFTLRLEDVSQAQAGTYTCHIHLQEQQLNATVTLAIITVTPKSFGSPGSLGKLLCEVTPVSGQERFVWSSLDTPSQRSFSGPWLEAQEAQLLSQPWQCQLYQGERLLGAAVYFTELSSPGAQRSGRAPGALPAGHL
Description: The TriCo-20™, TriCo-16™, Ph.D.-12™, and Ph.D. C7™ Phage Display Peptide Libraries (Creative Biolabs, 45-1 Ramsey Road, Shirley, NY 11967) were screened by performing several rounds of bio-panning to identify binders of soluble recombinant human LAG3.

[2] = tested on: interaction with LAG3 and its ligand MHC-II; test: Cell-based NFAT-luc2P luciferase reporter assay, LAG3 Jurkat / MHC-II Raji co-culture; design: species or system human; settings: RLUs at 100 µM compared to RLUs at 0.64 µM
Description: A cell-based reporter assay was used to assess whether binding of the seven peptides identified above was sufficient to block the interaction with LAG3 and its ligand MHC-II. The components of the assay include (1) a Jurkat T cell line that stably expresses human LAG3 and a stable NFAT-luc2P luciferase reporter, (2) a Raji cell line that expresses human MHC-II, and (3) a positive control anti-LAG3 antibody that blocks the interaction of LAG3 and MHC-II. In brief, Jurkat cells expressing LAG3 are stimulated with a T cell receptor (TCR) activator molecule, resulting in expression of luciferase. When the Jurkat cells are co-cultured with an a Raji cell line expressing the MHC-II molecule, the interaction of LAG3 on the surface of a Jurkat cell with MHC-II on the surface of a Raji cell inhibits T cell activation, leading to a reduction in luciferase expression. The addition of a neutralizing antibody against LAG3 blocks the inhibition signal and allows luciferase expression to proceed. BIO-GLO™ (Promega) was used to measure luciferase expression. The seven LAG3 peptides were tested at concentrations of 0, 0.64, 1.6, 4, 10, 25, & 100 µM.
Results of the assay testing the seven LAG3 peptides identified above and a negative control peptide ([…]; SEQ ID NO:9) are shown in FIG. 1B.

LAG3/MHC-II interaction = molecular target: T2, LAG3/MHC-II interaction (Homo sapiens, UniProt P18627); test: HTRF LAG3/MHC-II binding assay (Cisbio)
T2 construct: purchased Cisbio US Inc
T2 sequence (P18627 23-450 limits assumed): T1 sequence (P18627 23-450 limits assumed)
Description: FIG. 2 is a graph showing the results of a homogeneous time-resolved fluorescence (HTRF) assay for peptide LAG3-11. Reference Ab-LAG3 is an anti-LAG3 antibody. OVA, the ovalbumin (OVA) peptide (ISQAVHAAHAEINEAGR, SEQ ID NO:8). “HTRF ratio” is the emission at 665 nm (acceptor)/emission at 620 nm (donor) multiplied by a factor or 10^4.
A homogeneous time-resolved fluorescence (HTRF) LAG3/MHC-II binding assay (Cisbio US Inc.) was used to measure the interaction between MHC-II and LAG3 in the presence of peptides. In this assay, the interaction between Tag1-LAG3 and Tag2-MHC-II is detected by using anti-Tag1-Terbium (HTRF donor) and anti-Tag2-XL665 (HTRF acceptor). When the donor and acceptor antibodies are brought into close proximity due to LAG3 and MHC-II binding, excitation of the donor antibody triggers fluorescent resonance energy transfer (FRET) towards the acceptor antibody, which in turn emits specifically at 665 nm. This specific signal is directly proportional to the extent of LAG3/MHC-II interaction. Thus, an agent that blocks the interaction between LAG3 and MHC-II will cause a reduction in HTRF ratio.
An anti-human LAG3 antibody (Novoprotein #GMP-A092, Lot 0331158, 500 nM) was tested in the assay at an eleven-point, serially diluted semi-log dose response curve starting at 100 nM and served as a positive control. The ovalbumin peptide was used as a negative control. Peptides were reconstituted at a concentration of 20 mM in […] and tested at an eleven-point dose response curve starting at 100 µM followed by 4-fold dilutions. […]

[3] = tested on: human peripheral blood mononuclear cell (PBMC); test: Human PBMC-based recall assay (EBV and CMV viral-specific peptides); assay type: cell-based; settings: seven days post-stimulation
Method: PBMCs were obtained from a human donor who had previously been identified as a positive responder to Epstein-Barr virus (EBV) and Cytomegalovirus (CMV) viral-specific peptides. 5×10^5 PBMCs in 200 μL of media were stimulated with EBV and CMV viral-specific peptides in the presence or absence of LAG3-11. Seven days post-stimulation, the percentage of virus-specific CD8+ T cells were identified via flow cytometry using MHC-I tetramers. Supernatants were also collected and the amount of […] determined via ELISA.

human LAG3/FGL1 = molecular target: T3, human LAG3/FGL1 (Homo sapiens, UniProt P18627); test: Human LAG3/FGL1 TR-FRET binding assay (BPS Bioscience)
T3 construct: purchased BPS Bioscience
T3 sequence (P18627 23-450 limits assumed): T1 sequence (P18627 23-450 limits assumed)
Method: The peptides were tested using a human LAG3/FGL1 TR-FRET binding assay (BPS Bioscience) carried out according to the manufacturer's instructions.
Peptide stocks of LAG3-11, LAG3-42, LAG3-48, LAG3-51, LAG3-54, LAG3-56, LAG3-60 and OVA were prepared at 1 mM followed by a 1:5 dilution in plate reactions. LAG3-11 and OVA were tested at 200, 50, 13, 3, 0.8, 0.2, 0.05, and 0.01 μM. The other peptides were tested at 200, 50, 13, and 3 μM. A neutralizing anti-human LAG3 antibody (BPS Bioscience Cat. #71219) was used as a positive control.
Reaction mixes were incubated 1 hr at RT before development. After development, plate was read in a Tecan M1000 TR-FRET instrument. Percent activity was calculated as follows: % Activity=100×[(sample−minimum)/(maximum−minimum)]

Clonal Phase ELISA coated signal ([1]; coated): 0.271
Clonal Phase ELISA uncoated signal ([1]; uncoated (background)): 0.093
HTRF ratio (LAG3/MHC-II interaction; LOG [Compound] M tested for peptide −4, single replicates): 3213 and 3460 and 3458
HTRF ratio (LAG3/MHC-II interaction; LOG [Compound] M tested for peptide −4.60206, single replicates): 4749 and 5287 and 5014
HTRF ratio (LAG3/MHC-II interaction; LOG [Compound] M tested for peptide −5.20412, single replicates): 6812 and 6892 and 6696
HTRF ratio (LAG3/MHC-II interaction; LOG [Compound] M tested for peptide −5.80618, single replicates): 7774 and 8164 and 7993
HTRF ratio (LAG3/MHC-II interaction; LOG [Compound] M tested for peptide −6.40824): 8538 and 8718 and 8858
HTRF ratio (LAG3/MHC-II interaction; LOG [Compound] M tested for peptide −7.0103, single replicates): 8794 and 8729 and 8889
HTRF ratio (LAG3/MHC-II interaction; LOG [Compound] M tested for peptide −7.61236, single replicates): 9090 and 9036 and 9329
HTRF ratio (LAG3/MHC-II interaction; LOG [Compound] M tested for peptide −8.21442, single replicates): 9012 and 9293 and 9067
HTRF ratio (LAG3/MHC-II interaction; LOG [Compound] M tested for peptide −8.81648, single replicates): 8877 and 8955 and 8992
HTRF ratio (LAG3/MHC-II interaction; LOG [Compound] M tested for peptide −9.41854, single replicates): 8591 and 6950 and 8287
HTRF ratio (LAG3/MHC-II interaction; LOG [Compound] M tested for peptide −10.0206): 8212 and 8748 and 8700
HTRF ratio (LAG3/MHC-II interaction; LOG [Compound] M tested for peptide −10.6227): 8886 and 8842 and 9097
Sequence: SAPWEPLHWPEDWWQGTGEW (LAG3-11 peptide)
fold inhibition (fold increase in luciferase activity) [2]: approximately 2.8 fold
disruption of LAG3 and MHC-II interaction (LAG3/MHC-II interaction; four independent experiments): disrupts the interaction of LAG3 and MHC-II
increase of IFN-7 secretion by human PBMCs ([3]; relative to the viral-specific peptides alone, ELISA): 3 fold
increase in percentage of tetramer+ CD8 T cells ([3]; flow cytometry, MHC-I tetramers): ~2 fold
inhibition of the interaction between human LAG3 and FGL1 (human LAG3/FGL1): inhibit the interaction between human LAG3 and FGL1
